Measured values as given in PMC9352680, “A comprehensive thermodynamic model for RNA binding by the Saccharomyces cerevisiae Pumilio protein PUF4”.

T1: PUF4 RNA-binding domain (Saccharomyces cerevisiae, UniProt P25339 537-888)
T1 sequence: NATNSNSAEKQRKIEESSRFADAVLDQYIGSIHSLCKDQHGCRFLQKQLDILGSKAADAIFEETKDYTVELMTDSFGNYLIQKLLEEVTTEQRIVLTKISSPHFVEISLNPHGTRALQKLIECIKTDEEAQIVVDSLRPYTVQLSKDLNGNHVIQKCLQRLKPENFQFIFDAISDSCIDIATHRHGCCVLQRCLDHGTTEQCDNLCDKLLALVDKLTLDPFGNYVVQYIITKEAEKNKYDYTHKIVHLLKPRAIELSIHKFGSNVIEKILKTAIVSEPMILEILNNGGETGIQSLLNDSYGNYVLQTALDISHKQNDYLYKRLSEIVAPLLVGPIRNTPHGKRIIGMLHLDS


molecular target: T1, PUF4 RNA-binding domain; test: Mg; RNA-MaP; 20 mM Na-HEPES pH 7.4, 30 mM KOAc, 0.75 mM MgCl2, 0.1% Tween-20, 5% glycerol, 0.1 mg/mL BSA, 2 mM DTT; 25 C; 0.0125-409.6 nM protein; conditions: tags: N-His6-TEV cleaved; C-SNAP kept, Cy3B-labelled; label: tethered on chip by stalled RNA polymerase

Binder | Kd [nM]
UCUCUUGGUAUAUUUUCUCUU (ssRNA) [Ib_S1_P4E.1_K4.1_C4.1_H4.1_[T1G]_A4.1_F4.1_[A9T]_T4.1] | 1210
Ic_S2_P5E.1_K5.1_C5.1_H5.1_A5.1_[T5C]_F5.1_[T8C]_[T9C]_[A10C]_T5.1 (ssRNA) RNA: UUUGAUUAAUAUGAUAUCGUUCUUUCUUGUACUACCCUUCUUUCUCGAUAUCAUAUUAAUCUUU | 245
Ic_S2_P5E.1_K5.1_C5.1_H5.1_A5.1_[T5G]_[A7C]_F5.1_[T8A]_[A10G]_T5.1 (ssRNA) RNA: UUUGAUUAAUAUGAUAUCGUUCUUUCUUGUAGUCAUGUUCUUUCUCGAUAUCAUAUUAAUCUUU | 450
Ic_S2_P5E.1_K5.1_C5.1_H5.1_A5.1_[T5C]_[A7T]_F5.1_[T8A]_[T9C]_[A10G]_T5.1 (ssRNA) RNA: UUUGAUUAAUAUGAUAUCGUUCUUUCUUGUACUUACGUUCUUUCUCGAUAUCAUAUUAAUCUUU | 623
Ic_S2_P5E.1_K5.1_C5.1_H5.1_A5.1_[T6C]_[A7G]_F5.1_[T8C]_[T9C]_T5.1 (ssRNA) RNA: UUUGAUUAAUAUGAUAUCGUUCUUUCUUGUAUCGCCAUUCUUUCUCGAUAUCAUAUUAAUCUUU | 844
Ic_S2_P5E.1_K5.1_C5.1_H5.1_A5.1_[T5G]_[A7G]_F5.1_[T8G]_[T9C]_[A10C]_T5.1 (ssRNA) RNA: UUUGAUUAAUAUGAUAUCGUUCUUUCUUGUAGUGGCCUUCUUUCUCGAUAUCAUAUUAAUCUUU | > 2300
Ic_S2_P5E.1_K5.1_C5.1_H5.1_A5.1_[T5A]_[A7C]_F5.1_[T9A]_T5.1 (ssRNA) RNA: UUUGAUUAAUAUGAUAUCGUUCUUUCUUGUAAUCUAAUUCUUUCUCGAUAUCAUAUUAAUCUUU | 8.11
Ic_S2_P5E.1_K5.1_C5.1_H5.1_A5.1_[T5G]_F5.1_[T8C]_[T9C]_[A10T]_T5.1 (ssRNA) RNA: UUUGAUUAAUAUGAUAUCGUUCUUUCUUGUAGUACCUUUCUUUCUCGAUAUCAUAUUAAUCUUU | 413
Ic_S2_P5E.1_K5.1_C5.1_H5.1_A5.1_[T5C]_[T6A]_[A7C]_F5.1_[T8A]_[A10G]_T5.1 (ssRNA) RNA: UUUGAUUAAUAUGAUAUCGUUCUUUCUUGUACACAUGUUCUUUCUCGAUAUCAUAUUAAUCUUU | 114
Ic_S2_P5E.1_K5.1_C5.1_H5.1_A5.1_[T6A]_[A7T]_F5.1_[T9C]_[A10C]_T5.1 (ssRNA) RNA: UUUGAUUAAUAUGAUAUCGUUCUUUCUUGUAUAUUCCUUCUUUCUCGAUAUCAUAUUAAUCUUU | 2.26
Ic_S2_P5E.1_K5.1_C5.1_H5.1_A5.1_[T6C]_[A7C]_F5.1_[T8C]_T5.1 (ssRNA) RNA: UUUGAUUAAUAUGAUAUCGUUCUUUCUUGUAUCCCUAUUCUUUCUCGAUAUCAUAUUAAUCUUU | 9.09
Ic_S2_P5E.1_K5.1_C5.1_H5.1_A5.1_[A7T]_F5.1_[T9C]_[A10T]_T5.1 (ssRNA) RNA: UUUGAUUAAUAUGAUAUCGUUCUUUCUUGUAUUUUCUUUCUUUCUCGAUAUCAUAUUAAUCUUU | 16.4
Ic_S2_P5E.1_K5.1_C5.1_H5.1_A5.1_[T5C]_[T6C]_[A7C]_F5.1_[A10T]_T5.1 (ssRNA) RNA: UUUGAUUAAUAUGAUAUCGUUCUUUCUUGUACCCUUUUUCUUUCUCGAUAUCAUAUUAAUCUUU | 8.63
Ic_S2_P5E.1_K5.1_C5.1_H5.1_A5.1_[T6A]_F5.1_[T8A]_[T9A]_T5.1 (ssRNA) RNA: UUUGAUUAAUAUGAUAUCGUUCUUUCUUGUAUAAAAAUUCUUUCUCGAUAUCAUAUUAAUCUUU | 34.6
Ic_S2_P5E.1_K5.1_C5.1_H5.1_A5.1_[A7C]_F5.1_[T8C]_[T9A]_T5.1 (ssRNA) RNA: UUUGAUUAAUAUGAUAUCGUUCUUUCUUGUAUUCCAAUUCUUUCUCGAUAUCAUAUUAAUCUUU | 622
Ic_S2_P5E.1_K5.1_C5.1_H5.1_A5.1_[T5A]_[T6C]_[A7T]_F5.1_[T9G]_[A10T]_T5.1 (ssRNA) RNA: UUUGAUUAAUAUGAUAUCGUUCUUUCUUGUAACUUGUUUCUUUCUCGAUAUCAUAUUAAUCUUU | 304
Ic_S2_P5E.1_K5.1_C5.1_H5.1_A5.1_[T6G]_[A7T]_F5.1_[T8G]_[T9C]_[A10C]_T5.1 (ssRNA) RNA: UUUGAUUAAUAUGAUAUCGUUCUUUCUUGUAUGUGCCUUCUUUCUCGAUAUCAUAUUAAUCUUU | 49
Ic_S2_P5E.1_K5.1_C5.1_H5.1_A5.1_[T6C]_[A7T]_F5.1_[T9A]_[A10T]_T5.1 (ssRNA) RNA: UUUGAUUAAUAUGAUAUCGUUCUUUCUUGUAUCUUAUUUCUUUCUCGAUAUCAUAUUAAUCUUU | 1.53
Ic_S2_P5E.1_K5.1_C5.1_H5.1_A5.1_[T5C]_[T6A]_F5.1_[T9C]_[A10T]_T5.1 (ssRNA) RNA: UUUGAUUAAUAUGAUAUCGUUCUUUCUUGUACAAUCUUUCUUUCUCGAUAUCAUAUUAAUCUUU | 7.59
Ic_S2_P5E.1_K5.1_C5.1_H5.1_A5.1_[T6C]_[A7T]_F5.1_[T8A]_T5.1 (ssRNA) RNA: UUUGAUUAAUAUGAUAUCGUUCUUUCUUGUAUCUAUAUUCUUUCUCGAUAUCAUAUUAAUCUUU | 3.38
Ic_S2_P5E.1_K5.1_C5.1_H5.1_A5.1_[T5A]_[A7G]_F5.1_[T8C]_[A10T]_T5.1 (ssRNA) RNA: UUUGAUUAAUAUGAUAUCGUUCUUUCUUGUAAUGCUUUUCUUUCUCGAUAUCAUAUUAAUCUUU | 423
Ic_S2_P5E.1_K5.1_C5.1_H5.1_A5.1_[A7C]_F5.1_[T8G]_[A10T]_T5.1 (ssRNA) RNA: UUUGAUUAAUAUGAUAUCGUUCUUUCUUGUAUUCGUUUUCUUUCUCGAUAUCAUAUUAAUCUUU | 67.8
Ic_S2_P5E.1_K5.1_C5.1_H5.1_A5.1_[T5C]_[T6A]_[A7T]_F5.1_[T8A]_[T9G]_[A10T]_T5.1 (ssRNA) RNA: UUUGAUUAAUAUGAUAUCGUUCUUUCUUGUACAUAGUUUCUUUCUCGAUAUCAUAUUAAUCUUU | 5.17

Binder | Kd [nM]
Ic_S2_P5E.1_K5.1_C5.1_H5.1_A5.1_[T5C]_[T6C]_[A7C]_F5.1_[T8A]_[T9G]_[A10C]_T5.1 (ssRNA) RNA: UUUGAUUAAUAUGAUAUCGUUCUUUCUUGUACCCAGCUUCUUUCUCGAUAUCAUAUUAAUCUUU | 768
Ic_S2_P5E.1_K5.1_C5.1_H5.1_A5.1_[T6C]_[A7G]_F5.1_[T8A]_[A10C]_T5.1 (ssRNA) RNA: UUUGAUUAAUAUGAUAUCGUUCUUUCUUGUAUCGAUCUUCUUUCUCGAUAUCAUAUUAAUCUUU | 1490
Ic_S2_P5E.1_K5.1_C5.1_H5.1_A5.1_[T5G]_[T6C]_[A7T]_F5.1_[T8G]_[T9G]_[A10T]_T5.1 (ssRNA) RNA: UUUGAUUAAUAUGAUAUCGUUCUUUCUUGUAGCUGGUUUCUUUCUCGAUAUCAUAUUAAUCUUU | 679
Ic_S2_P5E.1_K5.1_C5.1_H5.1_A5.1_[T5A]_[A7T]_F5.1_[T9G]_[A10C]_T5.1 (ssRNA) RNA: UUUGAUUAAUAUGAUAUCGUUCUUUCUUGUAAUUUGCUUCUUUCUCGAUAUCAUAUUAAUCUUU | 70.7
Ic_S2_P5E.1_K5.1_C5.1_H5.1_A5.1_[T5A]_[A7T]_F5.1_[T8C]_[T9A]_[A10C]_T5.1 (ssRNA) RNA: UUUGAUUAAUAUGAUAUCGUUCUUUCUUGUAAUUCACUUCUUUCUCGAUAUCAUAUUAAUCUUU | 599
Ic_S2_P5E.1_K5.1_C5.1_H5.1_A5.1_[T5A]_[A7C]_F5.1_[T8C]_[T9G]_[A10C]_T5.1 (ssRNA) RNA: UUUGAUUAAUAUGAUAUCGUUCUUUCUUGUAAUCCGCUUCUUUCUCGAUAUCAUAUUAAUCUUU | 1200
Ic_S2_P5E.1_K5.1_C5.1_H5.1_A5.1_[T5G]_[A7C]_F5.1_[T8G]_[T9C]_[A10C]_T5.1 (ssRNA) RNA: UUUGAUUAAUAUGAUAUCGUUCUUUCUUGUAGUCGCCUUCUUUCUCGAUAUCAUAUUAAUCUUU | 1490
Ic_S2_P5E.1_K5.1_C5.1_H5.1_A5.1_[T5C]_[A7G]_F5.1_[T8G]_T5.1 (ssRNA) RNA: UUUGAUUAAUAUGAUAUCGUUCUUUCUUGUACUGGUAUUCUUUCUCGAUAUCAUAUUAAUCUUU | 38.2
Ic_S2_P5E.1_K5.1_C5.1_H5.1_A5.1_[T5A]_F5.1_[T8A]_[A10G]_T5.1 (ssRNA) RNA: UUUGAUUAAUAUGAUAUCGUUCUUUCUUGUAAUAAUGUUCUUUCUCGAUAUCAUAUUAAUCUUU | 183
Ic_S2_P5E.1_K5.1_C5.1_H5.1_A5.1_[T5C]_[A7G]_F5.1_[T9G]_[A10T]_T5.1 (ssRNA) RNA: UUUGAUUAAUAUGAUAUCGUUCUUUCUUGUACUGUGUUUCUUUCUCGAUAUCAUAUUAAUCUUU | 50.8
Ic_S2_P5E.1_K5.1_C5.1_H5.1_A5.1_[T5C]_[T6A]_[A7T]_F5.1_[T9A]_[A10C]_T5.1 (ssRNA) RNA: UUUGAUUAAUAUGAUAUCGUUCUUUCUUGUACAUUACUUCUUUCUCGAUAUCAUAUUAAUCUUU | 0.894
Ic_S2_P5E.1_K5.1_C5.1_H5.1_A5.1_[T6C]_F5.1_[T9G]_[A10C]_T5.1 (ssRNA) RNA: UUUGAUUAAUAUGAUAUCGUUCUUUCUUGUAUCAUGCUUCUUUCUCGAUAUCAUAUUAAUCUUU | 12.1
Ic_S2_P5E.1_K5.1_C5.1_H5.1_A5.1_[T5C]_[A7T]_F5.1_[T8G]_[A10T]_T5.1 (ssRNA) RNA: UUUGAUUAAUAUGAUAUCGUUCUUUCUUGUACUUGUUUUCUUUCUCGAUAUCAUAUUAAUCUUU | 28.3
Ic_S2_P5E.1_K5.1_C5.1_H5.1_A5.1_[T5C]_[T6C]_F5.1_[T8C]_[T9C]_[A10G]_T5.1 (ssRNA) RNA: UUUGAUUAAUAUGAUAUCGUUCUUUCUUGUACCACCGUUCUUUCUCGAUAUCAUAUUAAUCUUU | 619
Ic_S2_P5E.1_K5.1_C5.1_H5.1_A5.1_[T5C]_[T6G]_[A7T]_F5.1_[T8G]_[A10T]_T5.1 (ssRNA) RNA: UUUGAUUAAUAUGAUAUCGUUCUUUCUUGUACGUGUUUUCUUUCUCGAUAUCAUAUUAAUCUUU | 22.9
Ic_S2_P5E.1_K5.1_C5.1_H5.1_A5.1_[T5A]_[T6C]_[A7C]_F5.1_[T8A]_[A10G]_T5.1 (ssRNA) RNA: UUUGAUUAAUAUGAUAUCGUUCUUUCUUGUAACCAUGUUCUUUCUCGAUAUCAUAUUAAUCUUU | 751
Ic_S2_P5E.1_K5.1_C5.1_H5.1_A5.1_[T5A]_[A7T]_F5.1_[T9C]_[A10G]_T5.1 (ssRNA) RNA: UUUGAUUAAUAUGAUAUCGUUCUUUCUUGUAAUUUCGUUCUUUCUCGAUAUCAUAUUAAUCUUU | 108
Ic_S2_P5E.1_K5.1_C5.1_H5.1_A5.1_[T6A]_[A7C]_F5.1_[T8C]_[T9C]_[A10G]_T5.1 (ssRNA) RNA: UUUGAUUAAUAUGAUAUCGUUCUUUCUUGUAUACCCGUUCUUUCUCGAUAUCAUAUUAAUCUUU | 69.2
Ic_S2_P5E.1_K5.1_C5.1_H5.1_A5.1_[T5C]_[T6C]_F5.1_[T9C]_[A10C]_T5.1 (ssRNA) RNA: UUUGAUUAAUAUGAUAUCGUUCUUUCUUGUACCAUCCUUCUUUCUCGAUAUCAUAUUAAUCUUU | 8.45
Ic_S2_P5E.1_K5.1_C5.1_H5.1_A5.1_[T5A]_[T6C]_F5.1_[T8C]_[T9C]_T5.1 (ssRNA) RNA: UUUGAUUAAUAUGAUAUCGUUCUUUCUUGUAACACCAUUCUUUCUCGAUAUCAUAUUAAUCUUU | 278
UCUCUUGGUAUAUUCUCUCUU (ssRNA) [Ib_S1_P4E.1_K4.1_C4.1_H4.1_[T1G]_A4.1_F4.1_[A9C]_T4.1] | > 2300
UCUCUUCGUAUAUUCUCUCUU (ssRNA) [Ib_S1_P4E.1_K4.1_C4.1_H4.1_[T1C]_A4.1_F4.1_[A9C]_T4.1] | 1140
UCUCUUAGUAUAUUGUCUCUU (ssRNA) [Ib_S1_P4E.1_K4.1_C4.1_H4.1_[T1A]_A4.1_F4.1_[A9G]_T4.1] | 631
